Data reported in patent publication US20190145976A1 (GOVERNING COUNCIL OF THE UNIVERSITY OF TORONTO, published 2019).

Tests used:
[1] = biological target: T1, recombinant soluble human αKlotho (human, UniProt Q9UEF7 34-981); assay: competitive Fab-phage ELISA with soluble human αKlotho as competitor (FIG. 1C)
T1 construct: extracellular domain; Bought (R&D Systems); also called Hu aKL; soluble human αKlotho ectodomain
T1 sequence (looked up): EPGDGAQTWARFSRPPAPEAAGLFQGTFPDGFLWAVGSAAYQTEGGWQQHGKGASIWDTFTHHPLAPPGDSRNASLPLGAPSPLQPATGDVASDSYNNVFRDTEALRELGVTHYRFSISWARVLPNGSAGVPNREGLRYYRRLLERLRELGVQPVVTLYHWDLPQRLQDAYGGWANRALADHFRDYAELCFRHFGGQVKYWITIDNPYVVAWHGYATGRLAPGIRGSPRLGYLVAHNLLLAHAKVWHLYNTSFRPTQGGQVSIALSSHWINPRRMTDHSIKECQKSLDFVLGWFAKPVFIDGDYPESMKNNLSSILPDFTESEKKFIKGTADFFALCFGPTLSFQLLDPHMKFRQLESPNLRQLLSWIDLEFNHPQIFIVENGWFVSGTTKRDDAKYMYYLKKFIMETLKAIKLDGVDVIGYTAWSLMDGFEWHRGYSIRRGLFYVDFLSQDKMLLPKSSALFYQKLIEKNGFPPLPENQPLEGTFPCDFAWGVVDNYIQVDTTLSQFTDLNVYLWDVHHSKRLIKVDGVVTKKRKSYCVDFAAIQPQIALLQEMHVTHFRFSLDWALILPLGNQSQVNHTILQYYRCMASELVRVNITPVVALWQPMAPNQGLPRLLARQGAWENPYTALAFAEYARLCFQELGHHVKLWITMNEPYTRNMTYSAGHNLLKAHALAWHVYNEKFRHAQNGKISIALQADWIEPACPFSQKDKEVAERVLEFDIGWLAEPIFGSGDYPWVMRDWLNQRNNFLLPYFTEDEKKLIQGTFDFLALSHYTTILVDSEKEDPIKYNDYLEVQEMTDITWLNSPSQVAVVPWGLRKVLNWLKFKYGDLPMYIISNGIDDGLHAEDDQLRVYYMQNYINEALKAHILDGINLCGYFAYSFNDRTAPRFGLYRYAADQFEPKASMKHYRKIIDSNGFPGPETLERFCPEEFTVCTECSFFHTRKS
Method: (§1) (B) Specificity determination of anti-αKlotho sb106 by Fab-phage ELISA: sb106 Fab-phage were incubated with the following immobilized antigens: a complex of FGFR1c/αKlotho complex (aKL-R1), FGFR1c alone (R1), human αKlotho (Hu aKL) and mouse αKlotho (Mu aKL), or neutravidin (NA) and bovine serum albumin (BSA) as negative controls. After washing off unbound phage, bound phages were detected using an HRP-conjugated anti-phage antibody. Colorimetric HRP reagents allow for absorbance readings at 450 nm. […] The binding signals to immobilized human αKlotho reported are an average of two data sets.
(§2) Binding selections, phage ELISAs and Fab protein purification were performed as described. Briefly, phage from library F were cycled through rounds of panning with the binary complex of αKlotho extracellular domain and FGFR1c ligand-binding domain on 96-well Maxisorp Immunoplates (Fisher Scientific, Nepean, ON, Canada) as the capture target. After 5 rounds of selection, phage were produced from individual clones grown in a 96-well format and phage ELISAs were performed to detect specific binding clones. […] A competitive binding ELISA was performed by pre-incubating sb106-phage with serial dilutions of soluble human αKlotho (50-0.0005 nM×1 hour) prior to binding to an ELISA plate coated with human αKlotho. […]

[2] = biological target: T2, ligand-binding domain of human FGFR1c (D142 to R365) (human, UniProt P11362 142-365); assay: Fab-phage ELISA on immobilised antigen, HRP-conjugated anti-phage antibody, absorbance at 450 nm
T2 construct: range 142-365; also called FGFR1c alone
T2 sequence (looked up): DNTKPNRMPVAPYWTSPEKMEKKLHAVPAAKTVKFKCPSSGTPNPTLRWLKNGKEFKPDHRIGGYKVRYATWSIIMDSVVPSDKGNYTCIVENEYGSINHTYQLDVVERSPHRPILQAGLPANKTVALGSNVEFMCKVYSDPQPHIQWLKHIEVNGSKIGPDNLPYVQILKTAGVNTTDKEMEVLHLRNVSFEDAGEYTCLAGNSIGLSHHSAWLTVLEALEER
Method: as §1
(§3) Binding selections, phage ELISAs and Fab protein purification were performed as described. Briefly, phage from library F were cycled through rounds of panning with the binary complex of αKlotho extracellular domain and FGFR1c ligand-binding domain on 96-well Maxisorp Immunoplates (Fisher Scientific, Nepean, ON, Canada) as the capture target. After 5 rounds of selection, phage were produced from individual clones grown in a 96-well format and phage ELISAs were performed to detect specific binding clones. […] A competitive binding ELISA was performed by pre-incubating sb106-phage with serial dilutions of soluble human αKlotho (50-0.0005 nM×1 hour) prior to binding to an ELISA plate coated with human αKlotho. […] Fab and IgG proteins were affinity-purified on Protein A affinity columns (GE Healthcare, Mississauga, ON, Canada).

[3] = biological target: T3, neutravidin (UniProt P02701 25-152); assay: as above
T3 construct: Negative control in the phage ELISA; also called NA; NAV
T3 sequence (P02701 25-152): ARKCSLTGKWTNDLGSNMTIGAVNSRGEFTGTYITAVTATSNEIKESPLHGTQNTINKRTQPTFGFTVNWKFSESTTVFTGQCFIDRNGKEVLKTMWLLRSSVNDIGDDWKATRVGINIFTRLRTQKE
Method: as §1, §3

[4] = biological target: T4, bovine serum albumin (bovine, UniProt P02769 25-607); assay: as above
T4 construct: Negative control in the phage ELISA; also called BSA
T4 sequence (P02769 25-607 limits assumed): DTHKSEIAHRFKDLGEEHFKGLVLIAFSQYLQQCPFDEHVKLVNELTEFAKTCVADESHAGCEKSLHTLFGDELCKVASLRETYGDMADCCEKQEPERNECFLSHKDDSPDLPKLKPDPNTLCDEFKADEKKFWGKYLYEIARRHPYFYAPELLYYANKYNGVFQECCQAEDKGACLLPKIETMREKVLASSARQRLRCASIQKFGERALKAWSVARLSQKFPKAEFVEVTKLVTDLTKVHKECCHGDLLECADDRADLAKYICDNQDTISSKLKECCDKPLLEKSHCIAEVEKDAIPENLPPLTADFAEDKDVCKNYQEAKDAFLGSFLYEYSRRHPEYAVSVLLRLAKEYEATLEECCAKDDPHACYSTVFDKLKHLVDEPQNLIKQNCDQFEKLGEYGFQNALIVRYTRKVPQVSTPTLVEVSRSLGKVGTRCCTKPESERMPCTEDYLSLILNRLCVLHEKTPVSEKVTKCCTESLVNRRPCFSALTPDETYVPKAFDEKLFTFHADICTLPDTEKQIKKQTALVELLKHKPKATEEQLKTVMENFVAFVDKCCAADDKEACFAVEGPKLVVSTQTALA
Method: as §1, §3

[5] = biological target: T1, recombinant soluble human αKlotho; assay: competitive Fab-phage ELISA: sb106-phage pre-incubated with soluble human αKlotho (50-0.0005 nM), then bound to plate-coated human αKlotho; competitive Fab-phage ELISA; soluble human αKlotho as competitor
Method: as §1, §2

[6] = biological target: T5, native rat αKlotho in tissue and NRK cells (rat, UniProt Q9Z2Y9 35-1014); assay: immunohistochemistry on freshly frozen unfixed rat parathyroid sections; freshly frozen unfixed rat parathyroid tissue (native fold)
T5 construct: also called αKlotho of rat parathyroid tissue; native αKlotho of NRK cells
T5 sequence (looked up): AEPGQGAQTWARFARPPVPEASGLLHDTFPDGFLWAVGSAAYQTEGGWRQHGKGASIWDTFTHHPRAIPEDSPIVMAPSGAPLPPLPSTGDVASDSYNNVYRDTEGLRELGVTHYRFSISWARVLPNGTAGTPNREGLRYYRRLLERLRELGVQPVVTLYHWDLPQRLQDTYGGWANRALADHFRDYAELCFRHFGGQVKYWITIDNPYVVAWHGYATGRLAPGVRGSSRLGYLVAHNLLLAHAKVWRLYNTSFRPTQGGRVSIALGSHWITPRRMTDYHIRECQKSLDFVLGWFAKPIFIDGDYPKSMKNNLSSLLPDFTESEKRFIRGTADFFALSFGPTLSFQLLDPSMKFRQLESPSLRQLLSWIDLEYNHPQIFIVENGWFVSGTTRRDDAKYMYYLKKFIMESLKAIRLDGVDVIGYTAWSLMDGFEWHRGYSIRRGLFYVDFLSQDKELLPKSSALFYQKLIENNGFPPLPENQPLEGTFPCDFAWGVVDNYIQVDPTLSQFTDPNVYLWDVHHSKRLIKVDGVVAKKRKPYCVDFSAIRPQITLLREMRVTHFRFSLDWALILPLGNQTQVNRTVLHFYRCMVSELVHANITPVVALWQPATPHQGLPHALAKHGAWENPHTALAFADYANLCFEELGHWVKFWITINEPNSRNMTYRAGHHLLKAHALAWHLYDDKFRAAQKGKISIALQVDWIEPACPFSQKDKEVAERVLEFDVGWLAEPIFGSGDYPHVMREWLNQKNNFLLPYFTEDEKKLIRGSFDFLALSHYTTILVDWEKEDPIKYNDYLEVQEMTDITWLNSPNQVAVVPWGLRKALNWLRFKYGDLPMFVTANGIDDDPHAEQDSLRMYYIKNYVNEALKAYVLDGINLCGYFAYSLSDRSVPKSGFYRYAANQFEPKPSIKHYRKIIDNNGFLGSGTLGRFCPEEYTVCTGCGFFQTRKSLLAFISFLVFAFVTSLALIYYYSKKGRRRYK
Method: For labeling, sections were blocked (PBS, 1.5% BSA, 10% goat serum; 40 min) and incubated with the primary antibody sb106 ([…] in blocking solution; 4° C. overnight). After washing (PBS), sections were incubated with the Alexa 546 goat anti-human IgG (1:800 dilution, Invitrogen) for 1 hour at room temperature. After additional washes with PBS, the sections were fixed with 4% paraformaldehyde in PBS, washed with PBS, and mounted and visualized with a Zeiss LSM510 microscope.
Sb106 was highly reactive against αKlotho under native conditions. Immunoblot signals under denaturing conditions against mouse, rat, and human kidney tissue were weak, but in samples from transgenic mice overexpressing αKlotho[79], sb106-Fab detected a band corresponding to the full-length extracellular domain of αKlotho (FIG. 2A). In cultured cells, sb106-Fab was not able to detect αKlotho in immunoblots under denaturing conditions with lysates from NRK cells expressing native αKlotho but it was able to detect overexpressed antigen in cell lysates from HEK293 cells transfected with αKlotho (FIG. 2B). […] Cells were then incubated with sb106-Fab ([…] in 1% BSA in PBS) for 1 hr. Cells were washed 5 times with cold PBS (2 min each) and then incubated with anti-FLAG-Alexa488 (the C-terminus of the Fab light chain contains a Flag epitope tag) (1:400 in 1% BSA in PBS) for 1 hr, while being protected from light. […]

B1: sb106 Fab-phage (Fab, V domains shown)
VH: EVQLVESGGGLVQPGGSLRLSCAASGFNISYYSIHWVRQAPGKGLEWVAYISPSYGYTSYADSVKGRFTISADTSKNTAYLQMNSLRAEDTAVYYCARYYVYASHGWAGYGMDYWGQGTLVTVSS
VL: DIQMTQSPSSLSASVGDRVTITCRASQSVSSAVAWYQQKPGKAPKLLIYSASSLYSGVPSRFSGSRSGTDFTLTISSLQPEDFATYYCQQAGYSPITFGQGTKVEIKR
notes: also called sb106-phage; Sb106-phage
For B1, the Kd [1] was 1 to 2 nM, the binding result [2] was “no binding” and the binding result [3] was “no binding”. For the same binder, the binding result [4] was “no binding” and the IC50 [5] was 1.7 nM.

B2: sb106-IgG (antibody, V domains shown)
VH: B1 VH
VL: B1 VL
B2: binds [6].
